Binding result and Kd data for 21 molecules are collected here from patent publication US20210032331A1 (PHANES THERAPEUTICS, published 2021).

The target in one assay is T1, B7/IgG4.
T1 construct: Chimeric: mouse VH and VL with human IgG4 heavy chain and kappa light chain constant regions; also called B7 (human IgG4 heavy chain and kappa light chain chimeric)
The assay can be described thus: ELISA peptide competition: peptide preincubated with B7/IgG4, competitor hLAG3-mFc; peptide at 600-fold hLAG3-mFc; final incubation 60 min at room temperature; anti-mouse IgG-HRP. As to the method:
(§1) B5/IgG4 was preincubated with a competition peptide for 30 minutes. Then human LAG-3 extracellular domain (ECD) fused to mouse Fc (hLAG3-mFc) was added (the final peptide concentration was 600-fold that of hLAG3-mFc) and the mixture was incubated for 60 minutes before being added to an ELISA plate coated with anti-human IgG. The incubation was carried out at 4° C. overnight. After washing, the hLAG3-mFc bound to the immobilized B5/IgG4 on the ELISA plate was detected by adding anti-mouse IgG conjugated to horseradish peroxidase (HRP) and incubating for 60 minutes. Then, after washing, the ELISA was developed using One-step Detection Solution and measured as the absorbance at 450 nm.
The assay condition is the same as in FIG. 5A except that the final incubation of the mAb, the competition peptide, and hLAG3-mFc on the ELISA plate was performed at room temperature for 60 minutes instead of incubation at 4° C. overnight.
(§2) Anti-human IgG in carbonate coating buffer was coated on an ELISA plate at 4° C. (50 μL/well at 1 μg/mL) overnight. In each well of a separate plate, a chimeric version of a given anti-LAG-3 mAb (50 μL/well at 1.4 nM) and a competition peptide (50 μL/well at various concentrations as indicated in the figures) were mixed and incubated for 30 minutes at room temperature. Then human LAG-3 extracellular domain (ECD) fused to mouse Fc (hLAG3-mFc) was added to each well (50 μL/well at 2 nM) and the final mixture was incubated at room temperature for 60 minutes before added to the ELISA plate (50 μL/well) for another 60-minute incubation.
(ELISA stands for enzyme-linked immunosorbent assay.)

The target in another assay is T2, B3C.
T2 construct: Chimeric: mouse VH and VL fused to constant regions of human IgG1 heavy chain and kappa light chain; also called the chimeric version of mouse mAb B3; B3 (human IgG1 heavy chain and kappa light chain chimeric)
As to the kind of experiment: ELISA peptide competition: peptide (1X, 10X, 50X) preincubated with chimeric IgG1 B3, competitor hLAG3-mFc; capture on anti-human IgG, anti-mouse IgG-HRP. As to the method:
as §1, with “Then” for “B5/IgG4 was preincubated with a competition peptide for 30 minutes. Then”
(§3) FIGS. 9A-9B show the effect of competition peptides on LAG-3 binding to anti-LAG-3 mAbs.
as §2, with “incubation. The final incubation after adding the mixture to the ELISA plate was also performed at 4° C. overnight in some assays.” for “incubation.”

The next assay has as its target T3, B4C.
T3 construct: Chimeric: mouse VH and VL fused to constant regions of human IgG1 heavy chain and kappa light chain; also called the chimeric version of mouse mAb B4; B4 (human IgG1 heavy chain and kappa light chain chimeric)
As to the kind of experiment: ELISA peptide competition: peptide (1X, 10X, 50X) preincubated with chimeric IgG1 B4, competitor hLAG3-mFc; capture on anti-human IgG, anti-mouse IgG-HRP. How it is done: as §1, with “Then” for “B5/IgG4 was preincubated with a competition peptide for 30 minutes. Then”
as §3
as §2, with “incubation. The final incubation after adding the mixture to the ELISA plate was also performed at 4° C. overnight in some assays.” for “incubation.”

The target of a further assay is T4, human LAG-3(ECD)-huFc (human, UniProt P18627 23-450).
T4 construct: also called Fc-tagged human LAG-3(ECD)-huFc; not shown: human Fc (huFc) at the C-terminus
T4 sequence: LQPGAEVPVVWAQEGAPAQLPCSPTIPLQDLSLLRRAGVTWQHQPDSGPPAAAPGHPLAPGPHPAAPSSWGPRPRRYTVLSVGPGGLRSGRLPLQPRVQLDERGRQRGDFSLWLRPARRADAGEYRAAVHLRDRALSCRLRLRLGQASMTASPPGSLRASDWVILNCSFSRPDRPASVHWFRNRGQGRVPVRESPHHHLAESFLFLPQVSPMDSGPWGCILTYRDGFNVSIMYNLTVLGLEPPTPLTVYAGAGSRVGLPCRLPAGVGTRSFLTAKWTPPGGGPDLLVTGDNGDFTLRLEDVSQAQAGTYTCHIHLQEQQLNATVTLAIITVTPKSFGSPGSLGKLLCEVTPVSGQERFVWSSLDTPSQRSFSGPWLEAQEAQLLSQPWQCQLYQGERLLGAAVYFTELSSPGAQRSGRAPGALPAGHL
The assay can be described thus: SPR (Biacore): mAb from hybridoma supernatant captured on anti-mouse IgG CM5 chip, human LAG-3(ECD)-huFc 50-400 nM injected. How it is done:
Anti-mouse IgG antibodies were immobilized via amine coupling on CM5 chip surface. Anti-LAG-3 mAbs in hybridoma supernatants were captured on the chip surface and a series of concentrations (50-400 nM) of human LAG-3(ECD)-huFc protein were injected and passed through the captured surface. The on and off rates for antibody-antigen binding were measured, curve fitted and calculated.

On to PHPAAPSSWGPRP (also called peptide 15-27) [15-27], for which the binding result in the assay with B7/IgG4 is recorded as “binds”.
Consider PGPHPAAPSSWG (also called peptide 13-24) [13-24], for which the binding result in the assay with B3C and with B4C was “binds” in each case.
On to APSSWGPRPRRY (also called peptide 19-30) [19-30], for which the binding result with B7/IgG4 is “binds”.
Consider APGPHPAAPSSWG (also called peptide 12-24) [12-24], for which the binding result in the assay with B3C and in the assay with B4C was “binds” throughout.

B1: B11 (antibody, V domains shown)
VH: EVQLQQSGPVLVRPGASVKMSCKASGYTFTNYYMNWVKQSHGKSLEWIGVINPYNGDIAYSQKFKGKATLTVDKSSSTAYMELKSLTSEDSAVYYCARDDGYYVYYFDCWGQGTTLTVSS
VL: DIQMTQSPSSLSASLGERVSLTCRASQDIGGSLNWLQQKPDGTIKRLIYSTSTLDSGVPKRFSGSRSGSDYSLTISSLESEDFADYYCLQNANSPPTFGGGTKLEIK
notes: Mouse mAb from hybridoma; also called mouse anti-LAG-3 mAb B11
The molecule B1 showed a dissociation constant Kd with human LAG-3(ECD)-huFc of 1.18 nM.

B2: B2 (antibody, V domains shown)
VH: QVHLQQSGPQLVKPGASVKISCKASGYTFTDYYINWVKQRPGQGLEWIGWIFPGSGSTYYNEKFKGKATLTVDKSSSTAYMLLSSLTSEDSAVYFCVRIHFDYDWFFDVWGTGTTVTVSS
VL: DVVMTQTPLSLPVSLGDQASISCRSSQSIVHSNGNTYFYWYLQKPGQSPNLLIYRVSNRFSGVPDRFSGSGSGTDFTLKISRVEAEDMGVYYCFQGTHVPYTFGGGTKLEIK
notes: Mouse mAb from hybridoma; also called mouse anti-LAG-3 mAb B2
In the assay with human LAG-3(ECD)-huFc, B2 registered a Kd of 4.09 nM.
For PGHPLAPGPHPAAPSS (also called peptide 7-22) [7-22], the binding result with B3C and with B4C was “no binding (tested: 50X peptide)” throughout.

B3: B1 (antibody, V domains shown)
VH: DVQLQESGPGLVKPSQSLSLTCTVTGYSITSDYAWNWIRQFPGNKLEWMGYIDYSGITSYNPSLKSRISITRDTSKNQFFLQLNSVTTEDTATYYCAREDHYDLAWFAYWGQGTLVTVSA
VL: DIQMTQTTSSLSASLGDRVTISCRASQDISNYLNWYQQKPDGTVKLLIYYTSRLHSGVPSRFSGSGSGTDYSLTISNLEPEDIATYYCHQYSNRPPTFGGGTKLEIK
notes: Mouse mAb from hybridoma; also called mouse anti-LAG-3 mAb B1
B3 showed a Kd with human LAG-3(ECD)-huFc of 1.21 nM.
Consider GPHPAAPSSWG (also called peptide 14-24) [14-24], for which the binding result with B3C and with B4C was “binds” in each case.

B4: B7 (antibody, V domains shown)
VH: EFQLQQSGPELVKPGASVKISCKASGYSFSDYNLNWVKQSNGKTLEWIGLINLDSAATVYNQKFKGKATLTIDQSSTTAYMQLNSLTSDDSAVYYCASYDYWGQGTTLTVSS
VL: DIQMTQSPSSLSASLGERVSLSCRASQDISHYLNWFQQKPDGTFKRLIYETSTLDFGVPKRFSGSRSGSDYSLTIGSLESEDFADYYCLQYATYPLTFGAGTKLELK
notes: Mouse mAb from hybridoma; also called mouse anti-LAG-3 mAb B7
In the case of B4, the dissociation constant Kd with human LAG-3(ECD)-huFc turned out to be 0.758 nM.

B5: B10 (antibody, V domains shown)
VH: EFQLQQSGPELVKPGASVKISCKASGYSFTDYNLNWVKESNGKSLEWIGLITLDYGTTIYNQKFKGKATLTVDQSSSIAYMQLNSLTSDDSAVYYCACYDYWGQGTTLTVSS
VL: DIQMTQSPSSLSASLGERVSLTCRASQDISNYLNWFQQKPDGTFKRLIYATSTLDFGVPKRFSGSRSGSDYSLTISSLESEDFADYYCLQYASYPLTFGAGTKLELK
notes: Mouse mAb from hybridoma; also called mouse anti-LAG-3 mAb B10
On to B5, for which binding with human LAG-3(ECD)-huFc was characterised by a dissociation constant (Kd) of 1.1 nM.

B6: B3 (antibody, V domains shown)
VH: QVQLQQPGAELLKPGASVKMSCKASGYTFTSYDIHWLKQTPGQGLEWIGAIYPENGDSSYSQKFKDKATLTADKSSNTAYIHLSSLTSEDSAVYYCARGGYYDYVWFPYWGQGTLVTVSA
VL: DVVMTQTPLSLPVSLGDQASISCRSSQSILYSNGYTYLEWYLQKPGQSPKLLIYGVSNRFSGVPDRFSGSGSGTDFTLKISRVESEDMGVYYCFQGTHVPLTFGAGTKLELK
notes: Mouse mAb from hybridoma; also called mouse anti-LAG-3 mAb B3
In the case of B6, the affinity with human LAG-3(ECD)-huFc, expressed as Kd, was 1.53 nM.

B7: B4 (antibody, V domains shown)
VH: QVQLQQPGAELLKPGASVKMSCKASGYTFTSYDIHWLKQTPGQGLEWIGAIYPENGDSSYSQKFKGKATLTADKSSNTAYIHLSSLTSEDSAVYYCARGGYFDYVWFPYWGQGTLVTVSA
VL: DVVMTQTPLSLPVSLGDQASISCRSSQSIVYSNGYTYLEWYLQKPGQSPKLLIYGVSNRFSGVPDRFSGSGSGTDFTLKISRVEAEDMGVYYCFQGTHVPLTFGAGTKLELK
notes: Mouse mAb from hybridoma; also called mouse anti-LAG-3 mAb B4
In the case of B7, in the assay with human LAG-3(ECD)-huFc, the dissociation constant (Kd) turned out to be 0.217 nM.
With PAAPSSWGPRPRRY (also called peptide 17-30) [17-30], the binding result with B7/IgG4 was “binds”.
For the molecule PGHPLAPGPHPAAPSSW (also called peptide 7-23) [7-23], the binding result in the assay with B3C and in the assay with B4C was “binds” each time.
For the molecule PHPAAPSSWGPRPRRY (also called peptide 15-30) [15-30], the binding result with B3C, with B4C and with B7/IgG4 was “binds” in each case.

B8: B13 (antibody, V domains shown)
VH: EVMLVESGGGLVKPGGSLKVSCAASGFTFSIYAMCWVRQTPEKRLEWVATISSGGSNTYYPDSVKGRFTISRDNAKNTLYLQMSSLRSEDTAVYYCARGDVYYDYDGRGFDYWGQGTTLTVSS
VL: DIVMTQSPSSLTVTAGEKVTMSCKSSQSLLNSGNQKNYLTWYQQKPGQPPKMLIYWASTRESGVPERFTGSGSGTDFTLTINSVQAEDMAIYYCQNDYGYPLAFGAGTRLELK
notes: Mouse mAb from hybridoma; also called mouse anti-LAG-3 mAb B13
In the assay with human LAG-3(ECD)-huFc, B8 gave a Kd of 8.17 nM.
As for PHPAAPSSWGPRPR (also called peptide 15-28) [15-28], the binding result with B7/IgG4 is recorded as “binds”.
Regarding AAPSSWGPRPRRY (also called peptide 18-30) [18-30], the binding result in the assay with B7/IgG4 is reported as “binds”.
PHPAAPSSWGPRPRR (also called peptide 15-29) [15-29]: in the assay with B7/IgG4, the binding result was “binds”.
Take LAPGPHPAAPSSWG (also called peptide 11-24) [11-24]: the binding result in the assay with B3C and with B4C was “binds” in each case.

The term Kd denotes the equilibrium constant for the complex coming apart. Low values mean a tighter complex, high ones a looser complex.
